Experimental data taken from patent US20120207760A1.

Experiments:
[1] = biological target: recombinant homotrimeric HA, A/Japan/305/57 H2N2 (Influenza A virus A/Japan/305/57 (H2N2)); assay: trimeric HA microarray, transfection set 5
[2] = biological target: recombinant homotrimeric HA, A/Solomon Islands/3/06 H1N1 (Influenza A virus A/Solomon Islands/3/06 (H1N1)); assay: trimeric HA microarray, transfection set 5
[3] = biological target: recombinant homotrimeric HA, A/California/4/09 H1N1 (Influenza A virus A/California/4/09 (H1N1)); assay: trimeric HA microarray, transfection set 5
[4] = biological target: recombinant homotrimeric HA, A/Vietnam/1203/04 H5N1 (Influenza A virus A/Vietnam/1203/04 (H5N1)); assay: trimeric HA microarray, transfection set 5
[5] = biological target: recombinant homotrimeric HA, A/Wisconsin/67/05 H3N2 (Influenza A virus A/Wisconsin/67/05 (H3N2)); assay: trimeric HA microarray, transfection set 5
[6] = biological target: recombinant homotrimeric HA, A/South Carolina/1/18 H1N1 (Influenza A virus A/South Carolina/1/18 (H1N1)); assay: trimeric HA microarray, transfection set 5
[7] = biological target: recombinant homotrimeric HA, A/swine/Ontario/01911-2/99 H4N6 (Influenza A virus A/swine/Ontario/01911-2/99 (H4N6)); assay: trimeric HA microarray, transfection set 5
[8] = biological target: recombinant homotrimeric HA, A/Indonesia/5/05 H5N1 (Influenza A virus A/Indonesia/5/05 (H5N1)); assay: trimeric HA microarray, transfection set 5
[9] = biological target: recombinant homotrimeric HA, A/Hong Kong/2108/03 H9N2 (Influenza A virus A/Hong Kong/2108/03 (H9N2)); assay: trimeric HA microarray, transfection set 1
[10] = biological target: recombinant homotrimeric HA, A/South Carolina/1/18 H1N1 (Influenza A virus A/South Carolina/1/18 (H1N1)); assay: trimeric HA microarray, transfection set 1
[11] = biological target: recombinant homotrimeric HA, A/swine/Ontario/01911-2/99 H4N6 (Influenza A virus A/swine/Ontario/01911-2/99 (H4N6)); assay: trimeric HA microarray, transfection set 1
[12] = biological target: recombinant homotrimeric HA, A/Solomon Islands/3/06 H1N1 (Influenza A virus A/Solomon Islands/3/06 (H1N1)); assay: trimeric HA microarray, transfection set 3
[13] = biological target: recombinant homotrimeric HA, A/common magpie/Hong Kong/5052/07 H5N1 (Influenza A virus A/common magpie/Hong Kong/5052/07 (H5N1)); assay: trimeric HA microarray, transfection set 3
[14] = biological target: recombinant homotrimeric HA, A/California/4/09 H1N1 (Influenza A virus A/California/4/09 (H1N1)); assay: trimeric HA microarray, transfection set 3
[15] = biological target: recombinant homotrimeric HA, A/Vietnam/1203/04 H5N1 (Influenza A virus A/Vietnam/1203/04 (H5N1)); assay: trimeric HA microarray, transfection set 3
[16] = biological target: recombinant homotrimeric HA, A/Egypt/3300-NAMRU3/08 H5N1 (Influenza A virus A/Egypt/3300-NAMRU3/08 (H5N1)); assay: trimeric HA microarray, transfection set 3
[17] = biological target: recombinant homotrimeric HA, A/South Carolina/1/18 H1N1 (Influenza A virus A/South Carolina/1/18 (H1N1)); assay: trimeric HA microarray, transfection set 3
[18] = biological target: recombinant homotrimeric HA, A/Japan/305/57 H2N2 (Influenza A virus A/Japan/305/57 (H2N2)); assay: trimeric HA microarray, transfection set 2
[19] = biological target: recombinant homotrimeric HA, A/Solomon Islands/3/06 H1N1 (Influenza A virus A/Solomon Islands/3/06 (H1N1)); assay: trimeric HA microarray, transfection set 2
[20] = biological target: recombinant homotrimeric HA, A/common magpie/Hong Kong/5052/07 H5N1 (Influenza A virus A/common magpie/Hong Kong/5052/07 (H5N1)); assay: trimeric HA microarray, transfection set 2
[21] = biological target: recombinant homotrimeric HA, A/California/4/09 H1N1 (Influenza A virus A/California/4/09 (H1N1)); assay: trimeric HA microarray, transfection set 2
[22] = biological target: recombinant homotrimeric HA, A/Netherlands/219/03 H7N7 (Influenza A virus A/Netherlands/219/03 (H7N7)); assay: trimeric HA microarray, transfection set 2
[23] = biological target: recombinant homotrimeric HA, A/Hong Kong/2108/03 H9N2 (Influenza A virus A/Hong Kong/2108/03 (H9N2)); assay: trimeric HA microarray, transfection set 2
[24] = biological target: recombinant homotrimeric HA, A/Vietnam/1203/04 H5N1 (Influenza A virus A/Vietnam/1203/04 (H5N1)); assay: trimeric HA microarray, transfection set 2
[25] = biological target: recombinant homotrimeric HA, A/Egypt/3300-NAMRU3/08 H5N1 (Influenza A virus A/Egypt/3300-NAMRU3/08 (H5N1)); assay: trimeric HA microarray, transfection set 2
[26] = biological target: recombinant homotrimeric HA, A/chicken/Vietnam/NCVD-016/08 H5N1 (Influenza A virus A/chicken/Vietnam/NCVD-016/08 (H5N1)); assay: trimeric HA microarray, transfection set 2
[27] = biological target: recombinant homotrimeric HA, A/Wisconsin/67/05 H3N2 (Influenza A virus A/Wisconsin/67/05 (H3N2)); assay: trimeric HA microarray, transfection set 2
[28] = biological target: recombinant homotrimeric HA, A/South Carolina/1/18 H1N1 (Influenza A virus A/South Carolina/1/18 (H1N1)); assay: trimeric HA microarray, transfection set 2
[29] = biological target: recombinant homotrimeric HA, A/swine/Ontario/01911-2/99 H4N6 (Influenza A virus A/swine/Ontario/01911-2/99 (H4N6)); assay: trimeric HA microarray, transfection set 2
[30] = biological target: recombinant homotrimeric HA, A/Indonesia/5/05 H5N1 (Influenza A virus A/Indonesia/5/05 (H5N1)); assay: trimeric HA microarray, transfection set 2
[31] = biological target: recombinant homotrimeric HA, A/duck/Yangzhou/02/05 H8N4 (Influenza A virus A/duck/Yangzhou/02/2005 (H8N4)); assay: trimeric HA microarray, transfection set 2
[32] = biological target: recombinant homotrimeric HA, A/Anhui/1/05 H5N1 (Influenza A virus A/Anhui/1/05 (H5N1)); assay: trimeric HA microarray, transfection set 2
[33] = biological target: recombinant homotrimeric HA, A/northern shoveler/California/HKWF115/07 (Influenza A virus A/northern shoveler/California/HKWF115/2007 (H6N1)); assay: trimeric HA microarray, transfection set 2
[34] = biological target: recombinant homotrimeric HA, A/Hong Kong/1073/99 H9N2 (Influenza A virus A/Hong Kong/1073/99 (H9N2)); assay: trimeric HA microarray, transfection set 2

TCN-202 (2N9) (antibody)
Trimeric HA Binding RLU [1]: 1880 RLU
Trimeric HA Binding RLU [2]: 525 RLU
Trimeric HA Binding RLU [3]: 733 RLU
Trimeric HA Binding RLU [4]: 30000 RLU
Trimeric HA Binding RLU [5]: 581 RLU
Trimeric HA Binding RLU [6]: 5330 RLU
Trimeric HA Binding RLU [7]: 2690 RLU
Trimeric HA Binding RLU [8]: 1970 RLU
Trimeric HA Binding RLU [9]: 24 RLU
Trimeric HA Binding RLU [10]: 32 RLU
Trimeric HA Binding RLU [11]: 29 RLU
Trimeric HA Binding RLU [12]: 57 RLU
Trimeric HA Binding RLU [13]: 16 RLU
Trimeric HA Binding RLU [14]: 205 RLU
Trimeric HA Binding RLU [15]: 967 RLU
Trimeric HA Binding RLU [16]: 63 RLU
Trimeric HA Binding RLU [17]: 731 RLU
Trimeric HA Binding RLU [18]: 32 RLU
Trimeric HA Binding RLU [19]: 16 RLU
Trimeric HA Binding RLU [20]: 11 RLU
Trimeric HA Binding RLU [21]: 52 RLU
Trimeric HA Binding RLU [22]: 26 RLU
Trimeric HA Binding RLU [23]: 7 RLU
Trimeric HA Binding RLU [24]: 121 RLU
Trimeric HA Binding RLU [25]: 18 RLU
Trimeric HA Binding RLU [26]: 22 RLU
Trimeric HA Binding RLU [27]: 46 RLU
Trimeric HA Binding RLU [28]: 195 RLU
Trimeric HA Binding RLU [29]: 15 RLU
Trimeric HA Binding RLU [30]: 8 RLU
Trimeric HA Binding RLU [31]: 19 RLU
Trimeric HA Binding RLU [32]: 9 RLU
Trimeric HA Binding RLU [33]: 30 RLU
Trimeric HA Binding RLU [34]: 33 RLU
